In CN116836268A (BEIJING WISDOMAB BIOTECHNOLOGY CO LTD, dated 2023):

Biological target: Cov-S-RBD-His (SARS-CoV-2, UniProt P0DTC2 319-537)

B1: S4B3-mIgG2a (antibody, V domains shown)
VH: QVQLQQSGAELVKPGASVKMSCKASGYIFNSYSIHWVKKTPGQGLEWIGAIYPGNGDTSNSQRFKGKATLTADKSSSTVYMQLSRLTSEDSAVYYCARDGYDDSYGLDYWGQGTSVTVSS
VL: DIVMTQSQKFMSTSVGDRVSVTCKASQNVGTNVAWYQQKPGQSPKALIYSASYRYSGVPDRFTGSGSGTDFTLTISNVQSEDLAEYFCQQYNSYPLTFGGGTKLEIKR
- Kd: 22.8 nM
